In PMC4843017, “Molecular requirements for the inter-subunit interaction and kinetochore recruitment of SKAP and Astrin” (Nature Communications, 2016):

Legend:
[1] = biological target: T1, taxol-stabilized microtubules (α-/β-tubulin) (bovine, UniProt P81947 1-451; Q6B856 1-445); test: co-sedimentation; Kd determination: 0-10 μM taxol-stabilized microtubules (tubulin dimer), 1 μM BSA, 1 μM protein of interest; 25 mM Hepes pH 7.5, 150 mM NaCl, 1 mM MgCl2, 1 mM EGTA, 2 mM DTE; 10 min room temperature; 350,000 g, 25 °C; gel densitometry, quadratic fit; apparent Kd; conditions: both partners purified
T1 construct: α-tubulin, named α-1B tubulin in the cross-linking analysis; β-tubulin, named β-2B tubulin in the cross-linking analysis; Polymer of α/β-tubulin dimers; Bought tubulin is likely a mixture of isotypes; In the polymerization assay (functional rows) the same tubulin was used unpolymerized; also called MTs; α-1B and β-2B tubulin; source: bought: Cytoskeleton, Inc; polymerized according to …
T1 sequence (P81947 whole entry, chain 1 of 2): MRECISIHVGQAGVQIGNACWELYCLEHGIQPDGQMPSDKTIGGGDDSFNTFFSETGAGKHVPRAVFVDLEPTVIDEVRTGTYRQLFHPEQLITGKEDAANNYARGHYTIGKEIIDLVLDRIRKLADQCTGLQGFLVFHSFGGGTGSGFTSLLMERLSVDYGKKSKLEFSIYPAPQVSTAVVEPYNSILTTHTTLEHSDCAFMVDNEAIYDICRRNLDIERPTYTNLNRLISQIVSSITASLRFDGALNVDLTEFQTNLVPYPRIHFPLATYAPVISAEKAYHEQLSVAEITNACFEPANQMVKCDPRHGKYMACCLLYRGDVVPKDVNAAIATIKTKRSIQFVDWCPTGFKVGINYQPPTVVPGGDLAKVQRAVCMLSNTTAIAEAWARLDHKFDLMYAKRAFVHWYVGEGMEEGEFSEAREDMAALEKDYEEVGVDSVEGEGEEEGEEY
T1 sequence (Q6B856 whole entry, chain 2 of 2): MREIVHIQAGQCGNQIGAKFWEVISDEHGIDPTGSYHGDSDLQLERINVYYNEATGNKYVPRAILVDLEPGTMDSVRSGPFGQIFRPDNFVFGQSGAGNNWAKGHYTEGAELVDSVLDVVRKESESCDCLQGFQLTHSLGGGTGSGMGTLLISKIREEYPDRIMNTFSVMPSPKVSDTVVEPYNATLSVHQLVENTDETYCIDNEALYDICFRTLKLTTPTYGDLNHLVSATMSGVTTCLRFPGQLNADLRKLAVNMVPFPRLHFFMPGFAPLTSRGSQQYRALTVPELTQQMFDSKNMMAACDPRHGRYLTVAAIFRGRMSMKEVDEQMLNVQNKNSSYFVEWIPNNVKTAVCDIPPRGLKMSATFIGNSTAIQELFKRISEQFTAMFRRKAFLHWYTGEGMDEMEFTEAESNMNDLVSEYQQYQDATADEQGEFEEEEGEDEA

[2] = biological target: the molecule itself; test: AUC + cross-linking; sedimentation velocity, 42,000 r.p.m., 20 °C, 20 mM Hepes pH 7.5, 300 mM NaCl, 10% glycerol, 2 mM DTE; cross-linking conditions not told (Supplementary Fig. 3)

B1: SKAP^159–316:Astrin^482–850 complex (complex, human)
chain 1: VRKGYKPLSKQKSEEELKDKNQLLEAVNKQLHQKLTETQGELKDLTQKVELLEKFRDNCLAILESKGLDPALGSETLASRQESTTDHMDSMLLLETLQEELKLFNETAKKQMEELQALKVKLEMKEERVRFLEQQTLCNNQVNDLTTALKEMEQLLEM
chain 2: NKLQHLKESHEMGQALQQARNVMQSWVLISKELISLLHLSLLHLEEDKTTVSQESRRAETLVCCCFDLLKKLRAKLQSLKAEREEARHREEMALRGKDAAEIVLEAFCAHASQRISQLEQDLASMREFRGLLKDAQTQLVGLHAKQEELVQQTVSLTSTLQQDWRSMQLDYTTWTALLSRSRQLTEKLTVKSQQALQERDVAIEEKQEVSRVLEQVSAQLEECKGQTEQLELENSRLATDLRAQLQILANMDSQLKELQSQHTHCAQDLAMKDELLCQLTQSNEEQAAQWQKEEMALKHMQAELQQQQAVLAKEVRDLKETLEFADQENQVAHLELGQVECQLKTTLEVLRERSLQCENLKDTVENLTA
notes: Small kinetochore-associated protein (SKAP); Stoichiometry of the complex was not determined (AUC thwarted by limited solubility); also called SKAP:Astrin complex; source: Tnao38 insect cells (baculovirus), co-expressed, purified (HisTrap FF, Superose 6)
[1]
  Kd: ~1600 nM

B2: SKAP^159–316 (expressed alone in E. coli) (domain or fragment, human, UniProt Q9Y448 159-316, looked up)
chain: VRKGYKPLSKQKSEEELKDKNQLLEAVNKQLHQKLTETQGELKDLTQKVELLEKFRDNCLAILESKGLDPALGSETLASRQESTTDHMDSMLLLETLQEELKLFNETAKKQMEELQALKVKLEMKEERVRFLEQQTLCNNQVNDLTTALKEMEQLLEM
notes: Small kinetochore-associated protein (SKAP); source: E. coli OverExpress C41 (DE3), purified (GSTrap FF, HiTrap Q FF, Superdex 200); not shown: GST, N-terminal, cleaved
[1]
  binding result: binds

B3: SKAP^135–225 2A mutant (K161A, K164A) (domain or fragment, human, UniProt Q9Y448 135-225, looked up)
chain: VTKITKLRRENGQMKATDTATRRNVRAGYAPLSKQKSEEELKDKNQLLEAVNKQLHQKLTETQGELKDLTQKVELLEKFRDNCLAILESKG
notes: Small kinetochore-associated protein (SKAP); source: E. coli OverExpress C41 (DE3), purified (GSTrap FF, HiTrap Q FF, Superdex 200)
[1]
  fold reduction of microtubule-binding affinity against wild type: ~4 fold

B4: SKAP^135–225 4A mutant (K140A, K149A, K161A, K164A) (domain or fragment, human, UniProt Q9Y448 135-225, looked up)
chain: VTKITALRRENGQMAATDTATRRNVRAGYAPLSKQKSEEELKDKNQLLEAVNKQLHQKLTETQGELKDLTQKVELLEKFRDNCLAILESKG
notes: as for B3
[1]
  fold reduction of microtubule-binding affinity against wild type: ~31 fold

B5: SKAP^135–225 (domain or fragment, human, UniProt Q9Y448 135-225, looked up)
chain: VTKITKLRRENGQMKATDTATRRNVRKGYKPLSKQKSEEELKDKNQLLEAVNKQLHQKLTETQGELKDLTQKVELLEKFRDNCLAILESKG
notes: Small kinetochore-associated protein (SKAP); Behaved as a trimer in AUC and cross-linking; also called WT; source: E. coli OverExpress C41 (DE3), purified (GSTrap FF, HiTrap Q FF, Superdex 200)
[2]
  stoichiometry N: 3
[1]
  Kd: ~580 nM

B6: SKAP^159–225 (domain or fragment, human, UniProt Q9Y448 159-225, looked up)
chain: VRKGYKPLSKQKSEEELKDKNQLLEAVNKQLHQKLTETQGELKDLTQKVELLEKFRDNCLAILESKG
notes: as for B2
[1]
  Kd: ~2500 nM

B7: SKAP^103–225 (domain or fragment, human, UniProt Q9Y448 103-225, looked up)
chain: TQTRATSKSLLPVRSKEVDVSKQLHSGGPENDVTKITKLRRENGQMKATDTATRRNVRKGYKPLSKQKSEEELKDKNQLLEAVNKQLHQKLTETQGELKDLTQKVELLEKFRDNCLAILESKG
notes: Small kinetochore-associated protein (SKAP)
[1]
  binding result: binds
